{"source": "paper doi:10.1101/648071", "about": "(bioRxiv, 2019)", "key": {"[1]": {"biological_target": "SpaO-2SpaOC heterotrimer (Salmonella Typhimurium strain SL1344) (UniProt P40699)", "test": "native MS"}, "[2]": {"biological_target": "SpaO-2SpaOC heterotrimer (Salmonella Typhimurium strain SL1344) (UniProt P40699)", "test": "native MS", "remark": "listed apart in the source"}, "[3]": {"biological_target": "OrgB (co-expressed with Strep-tagged InvC or InvC fragments) (Salmonella Typhimurium strain SL1344)", "test": "native MS"}, "[4]": {"biological_target": "InvC, full-length, C-terminal Strep-tag (Salmonella Typhimurium strain SL1344) (UniProt P0A1B9)", "sequence (P0A1B9 whole entry)": "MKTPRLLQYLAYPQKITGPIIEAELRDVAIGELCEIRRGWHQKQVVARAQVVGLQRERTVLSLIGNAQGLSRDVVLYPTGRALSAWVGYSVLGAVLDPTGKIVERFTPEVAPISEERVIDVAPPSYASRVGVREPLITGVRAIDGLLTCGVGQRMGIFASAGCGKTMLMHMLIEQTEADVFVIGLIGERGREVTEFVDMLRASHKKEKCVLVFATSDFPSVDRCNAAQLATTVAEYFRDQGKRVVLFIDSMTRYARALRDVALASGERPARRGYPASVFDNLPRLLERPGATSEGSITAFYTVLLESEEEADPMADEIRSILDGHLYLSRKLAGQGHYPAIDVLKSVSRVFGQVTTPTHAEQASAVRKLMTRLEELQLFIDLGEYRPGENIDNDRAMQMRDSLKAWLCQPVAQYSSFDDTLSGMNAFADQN", "test": "native MS"}, "[5]": {"biological_target": "OrgB, C-terminal His-tag (co-expressed with spaO) (Salmonella Typhimurium strain SL1344)", "test": "native MS"}, "[6]": {"biological_target": "the molecule itself", "test": "native MS"}, "[7]": {"biological_target": "T1, SpaO SPOA1-SPOA2 construct (SpaO 140-297) (Salmonella Typhimurium strain SL1344, UniProt P40699 140-297)", "T1 sequence (looked up)": "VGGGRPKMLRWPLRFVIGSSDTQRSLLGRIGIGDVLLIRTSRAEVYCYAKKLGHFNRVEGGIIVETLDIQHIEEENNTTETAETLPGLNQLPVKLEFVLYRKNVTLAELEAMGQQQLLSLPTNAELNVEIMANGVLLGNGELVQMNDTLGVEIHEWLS", "test": "native MS"}, "[8]": {"biological_target": "T2, SpaO N-terminal domain (SpaO 1-145) (Salmonella Typhimurium strain SL1344, UniProt P40699 1-145)", "T2 sequence (looked up)": "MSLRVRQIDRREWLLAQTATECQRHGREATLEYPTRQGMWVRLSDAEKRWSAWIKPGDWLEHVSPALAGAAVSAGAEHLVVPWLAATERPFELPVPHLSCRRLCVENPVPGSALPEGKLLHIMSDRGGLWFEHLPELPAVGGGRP", "test": "native MS"}, "[9]": {"biological_target": "T2, SpaO N-terminal domain (SpaO 1-145)", "test": "SEC-MALS"}, "[10]": {"biological_target": "T3, SpaO, full-length, C-terminal Strep-tag (Salmonella Typhimurium strain SL1344, UniProt P40699 1-303)", "T3 sequence (looked up)": "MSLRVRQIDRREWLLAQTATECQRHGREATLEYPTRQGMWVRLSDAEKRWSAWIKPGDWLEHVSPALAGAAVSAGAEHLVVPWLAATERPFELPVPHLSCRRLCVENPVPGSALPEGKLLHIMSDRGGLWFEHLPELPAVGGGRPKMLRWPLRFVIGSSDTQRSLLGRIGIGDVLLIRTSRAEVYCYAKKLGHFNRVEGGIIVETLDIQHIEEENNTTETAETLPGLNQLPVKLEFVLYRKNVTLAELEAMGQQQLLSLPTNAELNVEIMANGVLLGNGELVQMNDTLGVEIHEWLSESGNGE", "test": "native MS"}, "[11]": {"biological_target": "T2, SpaO N-terminal domain (SpaO 1-145)", "test": "ITC"}, "[12]": {"biological_target": "T4, SpaO in the SpaO/SpaOC/OrgB/InvC complex (spaO+orgB+invC co-expression) (Salmonella Typhimurium strain SL1344, UniProt P40699 1-303)", "T4 sequence (looked up)": "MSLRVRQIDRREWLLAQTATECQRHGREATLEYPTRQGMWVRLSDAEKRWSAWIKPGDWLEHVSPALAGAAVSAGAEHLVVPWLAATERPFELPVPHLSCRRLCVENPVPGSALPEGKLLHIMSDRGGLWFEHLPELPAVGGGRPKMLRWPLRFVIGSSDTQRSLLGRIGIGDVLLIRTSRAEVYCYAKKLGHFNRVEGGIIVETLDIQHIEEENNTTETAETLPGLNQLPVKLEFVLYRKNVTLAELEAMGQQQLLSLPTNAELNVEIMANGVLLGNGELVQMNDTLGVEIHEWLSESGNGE", "test": "native MS"}}, "note": "Values joined by “and” are separate entries in the source; they are usually repeats but may differ in a detail not shown here. Equal entries are not always repeated. Where two headings read alike, the source gives them in different places."}
{"molecule": "SpaO-2SpaOC heterotrimer (from UniProt P40699 1-303; P40699 203-303) (complex)", "values": [{"measurement": "stoichiometry N", "setting": "[1]", "value": 2}, {"measurement": "stoichiometry N", "setting": "[2]", "value": 2}]}
{"molecule": "OrgB (co-expressed with Strep-tagged InvC or InvC fragments) (natural protein)", "values": [{"measurement": "stoichiometry N", "setting": "[3]", "value": 2}, {"measurement": "stoichiometry N (OrgB per InvC)", "setting": "[4]", "value": 2}]}
{"molecule": "OrgB, C-terminal His-tag (co-expressed with spaO) (natural protein)", "values": [{"measurement": "stoichiometry N", "setting": "[5]", "value": 2}]}
{"molecule": "SpaOC, short product of the spaO gene, C-terminal Strep-tag (natural protein, Salmonella Typhimurium strain SL1344, UniProt P40699 203-303, looked up) METLDIQHIEEENNTTETAETLPGLNQLPVKLEFVLYRKNVTLAELEAMGQQQLLSLPTNAELNVEIMANGVLLGNGELVQMNDTLGVEIHEWLSESGNGE", "values": [{"measurement": "stoichiometry N", "setting": "[6]", "value": "2 and 4"}, {"measurement": "stoichiometry N", "setting": "[7]", "value": "2 SpaOC per SpaO(140-297)"}, {"measurement": "stoichiometry N", "setting": "[8]", "value": "4 SpaOC per SpaO(1-145)"}, {"measurement": "stoichiometry N", "setting": "[9]", "value": "2 SpaOC per SpaO(1-145)"}, {"measurement": "stoichiometry N", "setting": "[10]", "value": 2, "unit": "SpaOC per SpaO"}, {"measurement": "Kd", "setting": "[11]", "value": "1040 ± 210", "unit": "nM"}]}
{"molecule": "SpaOC in the SpaO/SpaOC/OrgB/InvC complex (spaO+orgB+invC co-expression) (natural protein, Salmonella Typhimurium strain SL1344, UniProt P40699 203-303, looked up) METLDIQHIEEENNTTETAETLPGLNQLPVKLEFVLYRKNVTLAELEAMGQQQLLSLPTNAELNVEIMANGVLLGNGELVQMNDTLGVEIHEWLSESGNGE", "values": [{"measurement": "stoichiometry N", "setting": "[12]", "value": 2, "unit": "SpaOC per SpaO"}]}
